Data as given in a protein production outcome set (Wang et al. 2014).

Experiment: label from the status in PepcDB records
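Also: failed if final PepcDB status was selected cloned or expressed and not failed if soluble or beyond.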

Sequence: MKSEMVLSFMATLAQEESHTKSEIMNASIEMRFRRGIFLTPTLLGYDHDEDGNLVVNEGEAKIVRLIFMMYLNGCTCQEIADTMTELGCETKKGNTVWSPGSILQILQNERHCGDVLARKTYTPNYLNHKSKKNMQNRPQYRKRNHHEAIISRDDFIAVQRLISNAKYGNKGILPELKVISNGVLKGFVSINPRWAGFKENDYISASLSVYDQMEQLSPSASSVEVQSGDFDLRGYEIARSQFFDGTDRITVTFSLNDIKFSTAAVRKLNSTLVELLLHPNKHLFAVRTASQAHRNAMQWAKKRGELSVPRAVSGTAFMPTVYALLGWNTDCRYRITGIRRGNGNDAVLLFNLEETEIFIPSDVIDEQQTSDARTDVKPFTDNQKKNVRAYPPDWADTFGSNYYCHAQAHELAGFNSRDVISNEAVAYKDSDIQVTSPDEVEKNIEQLMSDMKENSNELEHHHHHH
- protein production: failed

Sequence: MKSFSIPIRFMLISSFFMSFGYFAVYAFLAIYLLSFLHFSTFQVGTVLTVIIITSRVIPLFSGLIADKIGYIIMMIAGLFLRGIGFIALGICSDFYTVSISSALIGFGTAFYEPAARAIFGSQPAHLRKNLFTYLNLSFNCGAIIGPIAGGFLLLLDPIYAFSLTGSLMLLFALIFYLLKNHFQVTTESTSIALGIQTILQNKSFLLFSFIMIFFYIMFTQLTVALPLHMKNISNSNQLATLVITINAITGVIFMVLFRKLFHKYNTLSFIKYGILLMSISFLLIPLFQHPYWLFICVIFFTIGETLVLPNADIAIANYSNESYTATFFGFYQLSLAFGFIIGNYTGTWFKSKLNGMYTPWLIFGGIGLIGFISLHILNIKKERSKEDIYLLEKY
- protein production: failed

Sequence: MKSKIFSTSLAFAFLLLITTVASAGQEIQITPYGERGLNPAIYDNKIAWLDKYINGSLHLRDLSTGKEIQITEDPWYSYLAVYNDKIVWGPGGQNIYLYNISTNHKTLLSIPESENQGSRDSLTIYGDKIVWRDQSGGYQDIYMYDLSTYNKTRITTNQSTKDPVIYGDKIVWQEDPSFGFGSSYHDIYVYNLSTSNKTRVTTNRSASSPNVYGDRIVYMESNNIYFHNLSTSLETQITFNGSRKDKLAIYGDRIVWQDDRNGNWDVYVYDLSEDKEIQITNDESDQLNPAIYGDKIVWEDYRNDRENMYYCSIYMYDFSAKPTMPFASFSANITSKSGNMPLTVLFTCNSTGGTPTSWYWDFGDGINSKHAQTATHTFKKPGTYDVSLTVTNFAGNSTLKKSNYITVTPQQAPIADFFSPEVYHANTYGGSVPTKTVSFVDNSTGSPTSWLWDFGDGNTSTEQNPTHVYDVEGGYTVNLTVKNVVGSNTTSKYGYVLVGLGDGSVAPEYFSSSVTSGDAPLKVTFHGGTGYANDWTFGDGSRQSVGENQTVEHTYLEPGQYTVSLSEYNVGGTAAITKYHYITVTGLTRPVASFTSEKVSVPMSLTIAFTDTSIGKPTSWYWDFGDGDSSTEQNPTHTYSAAGNYTVSLTASNENSTNSTFRVIDVFKTTGPFAYVISGNNISVIDTATDKVVDTIEIGSGLVGVAVNPTGTKVYVANEGNNTVSVIDTSISKVIATVNGLNSPYAIAITPDGKKAYVTNNSGAVFENGTVYVIDTGTSTVMNTVNVGSVPHGVAVSLDGAKVYVTNYYDISVIDTATNKVTATLNVGQYPDGIAVSPDGTKIYVTNGGSDNVSVIDTETNNVTATLPVGDNPVRVAVTPDGTKLYVTNYKGNTISVINTTTNTVTATIPGDGPYGVSITPDGKKVYVTNLGSDLSGKTVSVIDTAANTVIATVKVGSYPREVAVAPYGK
- protein production: failed

Sequence: MKSLSEHVDFSESKTGNSSSESETGQTLIFLLADLAQRQQIDNTLQSFLNESNAEEILLVANIRCADDEVWLRKYCARFPSVNAILNRRAKSATVLEAQGRWLARYRSQVVLSVDCDESGVKILRKVLPFFTPPVAMEMQKSTLSCQPGEQGLTLIIPAHDCDLYLTDCLASALVIESDKTLVVVDDGSLDDTHGVIAGFASQYPEIIDHISICKASGLPAVPRNIGLASVQTDTFGFIDADDWISPGEYTSALYEMQQMSADIATAAGFTRHYPDRTESLLQKCFTIPENEPANVLEGSFFSNIWNRIYARSILLRSGAYFPRTHFSEDFCFSVWSHFYAEKTIQVSVSFYHHRYGRQGSTTDNRAGSGAFSHITEFHRELEMYLADPFMRKALATILRKRMGSFQYTLKLLPPELIQPFKTALQEMLKPLNRYFISDKEPNKRDIATFAALGISDLLYQRPRSKFLGMRNWGRKWLGMYQQLTKRESHENS
- protein production: failed

Sequence: MKSLVKVSLAALALAFAVSAYAAEKELIVATDTAFVPFEFKQGDKYVGFDIDLWDAIAKKLDLKYTLKPMDFSGIIPALQTKNVDLALAGITITDERKKAVDFSDGYYNSGLLVMVKADNNDIKSEADLQGKVLAVKSGTGSVDYAKANIKTKDLRQFPNIDNAYLELGTGRADAVLHDTPNILYFIKTAGNGQFKAVGESIKAQQYGVAFPQGSDLREKVNAALKSLKEDGTYAEIYKKWFGVEPK
- protein production: failed

Sequence: MKTASYAQSFSRAAKEYDAYAYLQQTVARELASWIEGMECESILDLGCGTGALWRALRFKPRFFTGVDLSMEMLDLHPQDPAIRLIQSDFNHPSLYEHSYDLIAASSSLQWSRDLAQSFDLIAKSAQNVAFAIFTSESLWEIHDYVDSHSPIPSKERIESLLKERFAGEFELKRYPLSFPSRVAMLSYLKGSGISGGRRLGFAQSK
- protein production: failed

Sequence: MKTDLIYGVEDRPPFKDALFAALQHLLAIFVAIITPPLIIASALKLDVEKTSFLVSMSLFASGVSTFIQCRRIGPIGAKLLCIQGTSFSFIGPIIATGLVGGLPLIFGSCIAAAPIEMVVSRTFKYLRNIITPLVSGIVVLLIGLSLIKVGIVSCGGGYSAMDDGSFGSWENLSIAALVLLSVLFFNRCKNKYLRMSSIVFGLCLGYGLAFALGKVNMSALNVEMLMSFNIPQPFKYGIDFNISSFIAIGLVYLITAIEATGDVTANSMISGLPIEGDSYLKRVSGGVMADGFNSLLAGIFNSFPNSIFAQNNGIIQLTGVASRYVGYYIAAMLVLLGLFPIVGAIFSLMPDPVLGGATLLMFGTVAAAGIRIVSSQEIGRKETLVLAVSLSLGLGVELMPDVLKQAPEAIRSIFSSGITTGGLTAIVANMVIRVK
- protein production: not failed

Sequence: MKTEARILKECLAAAAPNCLHSILPPVVRDDQTRSMNKPMESYYHQFLEEFRLPLTNPVLVFSLVLFIILLAPIVSKRFNIPGTVGLILSGVLIGPHSLNLLEKSSAVELFSTIGLLYILLIAGLELDVNDFRKNRYKSALFGLLTFSIPIVLGYPVCRYLLNYPMSTSLLTASMFATHTLVAYPVVSRMGISKNRTVAITVAGTILSDTAVLILLAVIIGYSRGDINHEFWLHLVIALTLFSAIVFIVLPAIARWFFTKLENEKHAHYIFVLAALFFSAFLAKAAGLEPIVGAFAAGLALNPLIPGSSALMNRIEFIGNSLFIPFFLISVGMLVDLRIILSSPIALIIAALLTFVALAGKWLAALSTQKIFGYSAAHRRLIFGLSSSRAAATIAIALVGYRARILDLNILNAIIILILVTCIVSSLVTEKAAKEIVLEENDAAPEKEHAQGDADEQILLPIAENKPSERVLELAVMIREKRSLNPLTILTVVPNDHEAELNVKKAKKELAPTVDFAASFDTSLNIVATIDYNICSGISRAVKESQSNLIIFDWPSRQGFLGRMINDATESIVECTCKTTMICHLTRPLAIHRRIVVICPPFAEKEKGFGQWLRKMSRLSQELTIPLLFHCDRKSRLAIIETLKTSHSTSPVLYEVFKNFREWEDIASRKLHFREDDIVTFVCARRESISYKPFFDLVPEQLEKHVKDISKIMIYPEQFDSAIIEEEYADVVAPKSFPFGASTIRKIREEISGFMKKNQLQIRKKARGKTAATPKRFGFSRKEP
- protein production: failed

Sequence: MKTFTLQDAGDIRRLLTERLMQSVNAGTVPWRQNIIRHGVPIHALSGQLFTGINVLLLWQSALQNGLTSNRWLTGDDLRSLGGSIIPGQRPTTIVRYTPSLSLFRVINIEQCDGLPTELRAGWPWPPAPVPGMERIEKWQRASQVPVLYRGQRPAVYLSESDRIELPGSDQGNLDSLTALLVSATGHPTRLGRSCFTGSDVPERDEYLQESLVADVGRAFLAALAGIPLAGTPMWNGELGSDPWILFKSASEAGKAVDWLEKQRLTTLPFDDVQHWQRLAAHLLTTHYGQQLDDTTLVCDSVVHQHLRYNISPGNAVNALARIYDWPRSDVAPALFILELNSVADAFASFSLNPGSLVVHRVASDIDDNKVVLEAPELETLFLPPPFAKSVDEVAANDEEEGGDPDDPGNLAALPWVRNQGRSNPHRATFIRQFQEIAPYENRWTVFSDFIHMSAAALHNRCHFVQEIEDDYLRRIKRYKKADQNRFPLLFNTLVEGMEFSASDFLGSVFMELELGDQRRGQYFTPYSVGYMMAKLQLADGLPALTSGERDFITVSDPACGAGGLIVAMAQAMLEAGFNPQKQMMAVCVDIDPVAAMMAYVQLALCGIPAMVIVGNSLSMEFRQTWRTPFWMMFGWERKWAREQERKAQQKVA
- protein production: failed
